Laboratory results reported in patent US20040087497A1 (Bristol-Myers Squibb, published 2004).
Blank lines part the entries; values can stand above or below the binder they belong to. Starred links: 1 amine or outer side, 2 acyl side, 3 side chain; linkers in the order of their positions; H or OH if unused. Non-standard residues stand in square brackets, D forms with d. Suc = O=C(CCC(=O)[*:2])[*:1]; Dox = doxorubicin; βAla = NCCC(=O)O

What was measured:
Experiment in all cases: cell-based or functional assay
[1] = target: T1, human CD10 (human, UniProt P08473 2-750)
[2] = target: T1, human CD10; remark: listed apart in the source
[3] = target: T1, human CD10; remark: listed apart in the source
[4] = target: Prostate Specific Antigen (PSA) (human, UniProt P07288 25-261)
[5] = target: T1, human CD10; remark: listed apart in the source
[6] = target: T1, human CD10; remark: listed apart in the source
[7] = target: T1, human CD10; remark: listed apart in the source
[8] = target: T1, human CD10; remark: listed apart in the source

T1 sequence (P08473 2-750): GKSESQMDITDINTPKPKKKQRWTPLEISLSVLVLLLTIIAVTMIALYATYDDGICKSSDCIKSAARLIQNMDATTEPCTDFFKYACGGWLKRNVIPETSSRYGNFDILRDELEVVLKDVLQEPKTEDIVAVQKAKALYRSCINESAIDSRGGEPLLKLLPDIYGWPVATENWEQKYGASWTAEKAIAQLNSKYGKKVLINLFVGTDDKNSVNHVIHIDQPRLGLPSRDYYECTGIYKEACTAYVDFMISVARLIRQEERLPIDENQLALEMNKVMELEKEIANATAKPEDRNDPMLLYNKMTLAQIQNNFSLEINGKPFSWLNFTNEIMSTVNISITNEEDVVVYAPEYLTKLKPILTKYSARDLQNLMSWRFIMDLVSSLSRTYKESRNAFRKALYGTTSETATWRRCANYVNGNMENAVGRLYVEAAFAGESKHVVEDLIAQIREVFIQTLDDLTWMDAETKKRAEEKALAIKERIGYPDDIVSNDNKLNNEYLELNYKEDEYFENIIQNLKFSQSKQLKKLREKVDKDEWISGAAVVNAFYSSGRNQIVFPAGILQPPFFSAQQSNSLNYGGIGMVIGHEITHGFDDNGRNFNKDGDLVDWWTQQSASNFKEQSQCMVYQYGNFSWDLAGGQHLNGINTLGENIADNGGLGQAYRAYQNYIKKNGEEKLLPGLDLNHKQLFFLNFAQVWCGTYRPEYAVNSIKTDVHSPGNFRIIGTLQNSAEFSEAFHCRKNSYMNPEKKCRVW
Sequence of Prostate Specific Antigen (PSA) (P07288 25-261 limits assumed): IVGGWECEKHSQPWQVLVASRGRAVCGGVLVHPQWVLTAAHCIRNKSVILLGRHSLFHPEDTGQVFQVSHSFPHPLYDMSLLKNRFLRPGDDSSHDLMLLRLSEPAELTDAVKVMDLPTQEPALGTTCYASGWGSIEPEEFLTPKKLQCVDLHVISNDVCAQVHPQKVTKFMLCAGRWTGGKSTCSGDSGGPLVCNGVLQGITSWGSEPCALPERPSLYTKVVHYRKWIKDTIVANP

- IC50, proliferation of HL60 cells with supernatant of compound-treated CHO Clone 8 (CD10 Pos.) [1]: 2.7 µM
- IC50, proliferation of HL60 cells with supernatant of compound-treated CHO Clone DB4 (CD10 Pos.) [1]: 5.4 µM
- Ratio of IC50 Suc-β-Ala-Ile-Ala-Leu/Dox, CD10 transfected CHO Clone #7 [2]: 17 ratio
- Ratio of IC50 Suc-β-Ala-Ile-Ala-Leu/Dox, CD10 transfected CHO Clone #8 [2]: 15 ratio
- Ratio of IC50 Suc-β-Ala-Ile-Ala-Leu/Dox, CD10 transfected CHO clone DB4 [2]: 14 ratio
- Ratio of IC50 Suc-β-Ala-Ile-Ala-Leu/Dox, LnCap cells [2]: 3 ratio
- IC50 on LNCaP cells (CD10pos) with 0 nM phosphoramidon [3]: 0.24 µM
- IC50 on LNCaP cells (CD10pos) with 30 nM phosphoramidon [3]: 1.3 µM
- IC50 on LNCaP cells (CD10pos) with 100 nM phosphoramidon [3]: 3.3 µM
- IC50 on LNCaP cells (CD10pos) with 300 nM phosphoramidon [3]: 7.7 µM
- IC50 on LNCaP cells (CD10pos) with 1000 nM phosphoramidon [3]: 11.3 µM
- IC50 on LNCaP cells (CD10pos) with 3000 nM phosphoramidon [3]: 15.4 µM
- IC50 on Ramos cells (CD10pos) with 0 nM phosphoramidon [3]: 0.51 µM
- IC50 on Ramos cells (CD10pos) with 30 nM phosphoramidon [3]: 2.1 µM
- IC50 on Ramos cells (CD10pos) with 100 nM phosphoramidon [3]: 5.3 µM
- IC50 on Ramos cells (CD10pos) with 300 nM phosphoramidon [3]: 8.1 µM
- IC50 on Ramos cells (CD10pos) with 1000 nM phosphoramidon [3]: 9.7 µM
- IC50 on Ramos cells (CD10pos) with 3000 nM phosphoramidon [3]: 10.5 µM
- IC50, 3H-thymidine proliferation, 22RV1 cells (CD10- PSA+) [4]: 10800 µM
- IC50, 3H-thymidine proliferation, LnCAP cells (CD10+ PSA+) [5]: 150 µM
- difference between IC50 of Dox and of Suc-βAla-Ile-Ala-Leu-Dox, CD10 transfected CHO cells [6]: ~16 fold
- IC50 on LNCaP cells (CD10pos) with DL-Thiorphan 0 [7]: 0.51 µM
- IC50 on LNCaP cells (CD10pos) with DL-Thiorphan 30 [7]: 2.1 µM
- IC50 on LNCaP cells (CD10pos) with DL-Thiorphan 100 [7]: 5.3 µM
- IC50 on LNCaP cells (CD10pos) with DL-Thiorphan 300 [7]: 8.1 µM
- IC50 on LNCaP cells (CD10pos) with DL-Thiorphan 1000 [7]: 9.7 µM
- IC50 on LNCaP cells (CD10pos) with DL-Thiorphan 3000 [7]: 10.5 µM
- IC50 on Ramos cells (CD10pos) with DL-Thiorphan 0 [7]: 0.25 µM
- IC50 on Ramos cells (CD10pos) with DL-Thiorphan 30 [7]: 0.27 µM
- IC50 on Ramos cells (CD10pos) with DL-Thiorphan 100 [7]: 0.31 µM
- IC50 on Ramos cells (CD10pos) with DL-Thiorphan 300 [7]: 0.28 µM
- IC50 on Ramos cells (CD10pos) with DL-Thiorphan 1000 [7]: 0.44 µM
- IC50 on Ramos cells (CD10pos) with DL-Thiorphan 3000 [7]: 1.1 µM
- IC50, 3H thymidine proliferation, CD10 transfected CHO Clone #3 [8]: 19000 µM
- IC50, 3H thymidine proliferation, CD10 transfected CHO Clone #5 [8]: 19000 µM
- IC50, 3H thymidine proliferation, CD10 transfected CHO Clone #7 [8]: 11000 µM
- IC50, 3H thymidine proliferation, CD10 transfected CHO Clone #8 [8]: 8400 µM
- IC50, 3H thymidine proliferation, CD10 transfected CHO clone DB4 [8]: 4200 µM
- IC50, 3H thymidine proliferation, LnCap cells (CD10 positive) [8]: 390 µM
- IC50, 3H thymidine proliferation, Ramos cells [8]: 440 µM
B2: Suc-βAla-Ile-Ala-Leu-Dox (peptide)
peptide: Suc-[βAla]IAL-Dox

- shift of IC50 on LNCaP cells treated with 100 nM of phosphoramidon [6]: 7 fold
- IC50, 3H thymidine proliferation, CD10 transfected CHO Clone #3 [8]: 19000 µM
- IC50, 3H thymidine proliferation, CD10 transfected CHO Clone #5 [8]: 24000 µM
- IC50, 3H thymidine proliferation, CD10 transfected CHO Clone #7 [8]: 13000 µM
- IC50, 3H thymidine proliferation, CD10 transfected CHO Clone #8 [8]: 10000 µM
- IC50, 3H thymidine proliferation, CD10 transfected CHO clone DB4 [8]: 5400 µM
- IC50, 3H thymidine proliferation, LnCap cells (CD10 positive) [8]: 510 µM
- IC50, 3H thymidine proliferation, Ramos cells [8]: 840 µM
B4: Suc-βAla-Leu-Ala-Leu-Dox (peptide)
peptide: Suc-[βAla]LAL-Dox

The next lines start with the binder.

B1: Suc-Leu-Ala-Gly-Dox (peptide)
peptide: Suc-Leu-Ala-Gly-Dox
- IC50, proliferation of HL60 cells with supernatant of compound-treated CHO Clone 8 (CD10 Pos.) [1]: > 25 µM
- IC50, proliferation of HL60 cells with supernatant of compound-treated CHO Clone DB4 (CD10 Pos.) [1]: > 25 µM

B3: Suc-Ile-Ala-Leu-Dox (peptide)
peptide: Suc-Ile-Ala-Leu-Dox
- IC50, 3H-thymidine proliferation, 22RV1 cells (CD10- PSA+) [4]: 14000 µM
- IC50, 3H-thymidine proliferation, LnCAP cells (CD10+ PSA+) [5]: 170 µM
